For this assay, the target named is T1, SETD3 (SET domain protein 3) (human, UniProt Q86TU7).
T1 sequence: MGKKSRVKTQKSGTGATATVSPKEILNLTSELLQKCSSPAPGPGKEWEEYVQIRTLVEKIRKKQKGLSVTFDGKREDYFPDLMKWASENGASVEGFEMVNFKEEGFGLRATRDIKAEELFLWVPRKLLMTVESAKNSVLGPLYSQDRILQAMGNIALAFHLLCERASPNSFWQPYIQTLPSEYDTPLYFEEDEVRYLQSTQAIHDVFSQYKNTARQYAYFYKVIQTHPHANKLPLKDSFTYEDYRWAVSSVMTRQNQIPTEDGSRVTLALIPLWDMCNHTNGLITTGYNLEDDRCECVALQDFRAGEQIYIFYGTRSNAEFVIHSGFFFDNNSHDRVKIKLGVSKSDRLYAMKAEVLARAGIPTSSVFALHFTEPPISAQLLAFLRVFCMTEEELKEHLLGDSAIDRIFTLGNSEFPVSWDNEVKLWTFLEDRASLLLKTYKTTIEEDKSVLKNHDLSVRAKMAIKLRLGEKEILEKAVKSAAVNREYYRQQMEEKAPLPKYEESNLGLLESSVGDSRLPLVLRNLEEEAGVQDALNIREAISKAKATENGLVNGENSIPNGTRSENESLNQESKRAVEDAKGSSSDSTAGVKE
The assay can be described thus: crystal structure.

Experimental findings from publication PMC6511263 (Nature, 2018) are described below.

TLKYPIEHGIVTNWD [Human beta-actin peptide (residues 66-80)]: the binding result is on record as “binds”.
